The numbers were not newly measured in PMC5726790, which cites them from elsewhere.

Data set [1] deals with C5a receptor (Homo sapiens) (UniProt P21730).
A further data set addresses CCR7 (Mus musculus) (UniProt P47774).
UniProt P47774, sequence (P47774 25-378): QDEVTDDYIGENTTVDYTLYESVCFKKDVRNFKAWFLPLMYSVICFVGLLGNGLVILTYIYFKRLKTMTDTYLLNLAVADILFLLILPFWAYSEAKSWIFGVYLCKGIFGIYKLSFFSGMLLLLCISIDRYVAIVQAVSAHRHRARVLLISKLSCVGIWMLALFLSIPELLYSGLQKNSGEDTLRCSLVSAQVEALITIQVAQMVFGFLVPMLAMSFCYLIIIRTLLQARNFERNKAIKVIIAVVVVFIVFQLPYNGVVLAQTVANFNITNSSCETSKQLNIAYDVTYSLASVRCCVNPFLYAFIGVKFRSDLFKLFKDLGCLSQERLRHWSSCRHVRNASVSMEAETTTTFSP

UniProt P21730, sequence (P21730 whole entry): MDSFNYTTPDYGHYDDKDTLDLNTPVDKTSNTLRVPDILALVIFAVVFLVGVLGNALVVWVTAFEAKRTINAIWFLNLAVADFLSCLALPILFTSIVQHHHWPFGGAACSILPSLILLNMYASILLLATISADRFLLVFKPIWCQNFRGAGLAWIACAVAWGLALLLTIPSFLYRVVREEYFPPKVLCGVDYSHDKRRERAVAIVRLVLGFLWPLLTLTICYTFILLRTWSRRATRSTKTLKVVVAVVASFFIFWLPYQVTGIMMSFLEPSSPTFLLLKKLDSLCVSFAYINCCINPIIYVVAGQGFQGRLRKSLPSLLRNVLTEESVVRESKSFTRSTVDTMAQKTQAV

For the substance C5a C5a (from UniProt P01031), in data set [1], the Kd is 1 nM.

Take CCL19 (from UniProt O70460): in the data set with CCR7 (Mus musculus), the equilibrium dissociation constant (Kd) is 1.5 nM.
